Data taken from the supplement of paper PMC11246515.
± gives the standard deviation of the averaged measurements.

Experiment: total protein half-life in vivo (active degradation + dilution); higher = more stable protein
[1] = E. coli NCM3722 delta-clpP delta-lon delta-hslV, growth: N-lim chemostat, doubling time 6 h
[2] = E. coli NCM3722 delta-clpP, growth: N-lim chemostat, doubling time 6 h
[3] = E. coli NCM3722 delta-hslV, growth: N-lim chemostat, doubling time 6 h
[4] = E. coli NCM3722 delta-lon, growth: N-lim chemostat, doubling time 6 h
[5] = E. coli NCM3722 delta-smpB, growth: N-lim chemostat, doubling time 6 h
[6] = wild type E. coli NCM3722, growth: C-lim chemostat, doubling time 3 h
[7] = wild type E. coli NCM3722, growth: C-lim chemostat, doubling time 6 h
[8] = wild type E. coli NCM3722, growth: C-lim chemostat, doubling time 12 h
[9] = wild type E. coli NCM3722, growth: N-lim chemostat, doubling time 6 h
[10] = wild type E. coli NCM3722, growth: P-lim chemostat, doubling time 6 h
[11] = wild type E. coli NCM3722, growth: P-lim chemostat, doubling time 12 h
[12] = wild type E. coli NCM3722, growth: N-lim chemostat, doubling time 12 h

Sequence | total protein half-life in vivo [1] [h] | total protein half-life in vivo [2] [h] | total protein half-life in vivo [3] [h] | total protein half-life in vivo [4] [h] | total protein half-life in vivo [5] [h] | total protein half-life in vivo [6] [h] | total protein half-life in vivo [7] [h] | total protein half-life in vivo [8] [h] | total protein half-life in vivo [9] [h] | total protein half-life in vivo [10] [h] | total protein half-life in vivo [11] [h] | total protein half-life in vivo [12] [h]
MLNSFKLSLQYILPKLWLTRLAGWGASKRAGWLTKLVIDLFVKYYKVDMKEAQKPDTASYRTFNEFFVRPLRDEVRPIDTDPNVLVMPADGVISQLGKIEEDKILQAKGHNYSLEALLAGNYLMADLFRNGTFVTTYLSPRDYHRVHMPCNGILREMIYVPGDLFSVNHLTAQNVPNLFARNERVICLFDTEFGPMAQILVGATIVGSIETVWAGTITPPREGIIKRWTWPAGENDGSVALLKGQEMGRFKLGSTVINLFAPGKVNLVEQLESLSVTKIGQPLAVSTETFVTPDAEPAPLPAEEIEAEHDASPLVDDKKDQV [P0A8K1] | 6.31 ± 0.2 | 6.33 ± 0.086 | 5.99 ± 0.61 | 5.79 ± 0.1 | 6 ± 0.58 | 2.76 ± 0.4 | 6.32 ± 0.66 | 12.8 ± 0.63 | 6.81 ± 0.24 | 6.16 ± 0.32 | 13.3 ± 0.12 | –
MLNYVIKRLLGLIPTLFIVSVLVFLFVHMLPGDPARLIAGPEADAQVIELVRQQLGLDQPLYHQFWHYISNAVQGDFGLSMVSRRPVADEIASRFMPTLWLTITSMVWAVIFGMAAGIIAAVWRNRWPDRLSMTIAVSGISFPAFALGMLLIQVFSVELGWLPTVGADSWQHYILPSLTLGAAVAAVMARFTRASFVDVLSEDYMRTARAKGVSETWVVLKHGLRNAMIPVVTMMGLQFGFLLGGSIVVEKVFNWPGLGRLLVDSVEMRDYPVIQAEILLFSLEFILINLVVDVLYAAINPAIRYK | 6.23 ± 0.21 | 5.94 ± 1 | 6.89 ± 0.77 | 6.12 ± 1.5 | 5.48 ± 0.069 | 3.13 ± 0.44 | 6.58 ± 0.59 | 11.4 ± 1.1 | 5.84 ± 0.41 | 5.68 | 12.6 ± 1.1 | 11.1 ± 0.85
MLPPYFLFKEMTDTQYIGRFAPSPSGELHFGSLIAALGSYLQARARQGRWLVRIEDIDPPREVPGAAETILRQLEHYGLHWDGDVLWQSQRHDAYREALAWLHEQGLSYYCTCTRARIQSIGGIYDGHCRVLHHGPDNAAVRIRQQHPVTQFTDQLRGIIHADEKLAREDFIIHRRDGLFAYNLAVVVDDHFQGVTEIVRGADLIEPTVRQISLYQLFGWKVPDYIHLPLALNPQGAKLSKQNHAPALPKGDPRPVLIAALQFLGQQAEAHWQDFSVEQILQSAVKNWRLTAVPESAIVNSTFSNASC | – | 3.9 | – | 5.27 | 3.67 ± 0.12 | 3.26 ± 0.7 | 5.73 | 3.64 | 3.84 | 4.7 | 9.87 ± 0.39 | –
MLPSISINNTSAAYPESINENNNDEVNGLVQEFKNLFNGKEGISTCIKHLLELIKNAIRVNDDPYRFNINNSSVTYIDIDSNDTDHITIGIDNQEPIELPANYKDKELVRTIINDNIVEKTHDINNKEMIFSALKEIYDGDPGFIFDKISHKLRHTVTEFDESGKSEPTDLFTWYGKDKKGDSLAIVIKNKNGNDYLSLGYYDQDDYHIQRGIRINGDSLTQYCSENARSASAWFESSKAIMAESFATGSDHQVVNELNGERLREPNDVFKRYGRAIRYDFQVDDAKYKCDHLKEIVSTLVGNKINVGHSQKIYKHFKDLEGKIEERLQNRQAEYQNEINQPSAPGVNFDDI | – | – | – | – | – | – | – | – | 5.3 | – | – | –
MLQHYSVSWKKGLAALCLLAVAGLSGCDQQENAAAKVEYDGLSNSQPLRVDANNHTVTMLVQINGRFLTDDTRHGIVFKDGSNGHKSLFMGYATPKAFYEALKEAGGTPGENMTMDNKETTHVTGSKLDISVNWQGAAKAYSFDEVIVDSNGKKLDMRFGGNLTAAEEKKTGCLVCLDSCPVGIVSNATYTYGAVEKRGEVKFKGNASVLPADNTLATVTFKIAE | 5.59 ± 0.95 | 6.08 ± 0.12 | 6.34 ± 0.64 | 6.31 ± 0.53 | 6.66 ± 0.39 | 2.87 ± 0.32 | 6.91 ± 0.16 | – | 6.55 ± 0.35 | 4.96 ± 0.71 | 14.84 ± 0.069 | 12.4 ± 0.69
MLQIIRGKLVIFLITLCLFVVYLGFDNNSNSDIVFYGHKTPKSVEIYLSEKNIIYKIINDQKISRGNGHFISIMVNNYRTHCGVVDINLNFFNDILYSVRLKNISKLENMEFCATKQRVYFSDKNKKASYKIINYGDYYDVDYYDNNLKNEVFDWIGKWS | – | – | – | – | – | 2.67 | 4.29 | – | – | 2.67 | 7 | –
MLQLLLAVFIGGGTGSVARWLLSMRFNPLHQAIPLGTLTANLIGAFIIGIGFAWFSRMTNIDPVWKVLITTGFCGGLTTFSTFSAEVVFLLQEGRFGWALLNVFVNLLGSFAMTALAFWLFSASTAH | – | – | 5.83 | – | – | – | – | – | – | – | – | –
MLQNCAQSNCRIIPKKLRDMKREEICRLLADKVNKLKNKENSLSGLLPDVRLLYGETPFARTPVMYEPGIIILFSGHKIGYINERVFRYDANEYLLLTVPLPFECETYATSEVPLAGLRLNVDILQLQELLMDIGEDEHFQPSMAASGINSATLSEEILCAAERLLDVMERPLDARILGKQIIREILYYVLTGPCGGALLALVSRQTHFSLISRVLKRIENKYTENLSVEQLAAEANMSVSAFHHNFKSVTSTSPLQYLKNYRLHKARMMIIHDGMKASAAAMRVGYESASQFSREFKRYFGVTPGEDAARMRAMQGN | 5 ± 0.43 | 3.07 ± 0.072 | 2.48 ± 0.13 | 4.33 ± 0.18 | 2.432 ± 0.0042 | 2.08 ± 0.1 | 3.87 ± 0.56 | 4.94 | 2.98 | 2.74 | 4.35 ± 0.82 | 3.71 ± 0.24
